From patent publication US10836794B2, “Group of peptides for treating female sexual dysfunction” (“IVIX” Ltd., priority 2016, dated 2020)
Non-standard residues stand in square brackets, D forms with d. No end group written: not given here. Hyp = O=C(O)[C@@H]1C[C@@H](O)CN1

Tests used:
[1] = Stability of liquid pharmaceutical forms (peptide 0.2 %, benzalkonium chloride 0.01 %, water) during storage; single and total impurities; type: physicochemical
From the text: Investigations of the Stability of Pharmaceutical Forms Containing Peptides Having the Property of Stimulating the Genital and Sexual Functions
This experiment investigated the stability of compositions containing peptides according to the invention. The results of the investigations are illustrated by the example of several peptides according to the invention containing hydroxyproline, in particular Thr-Lys-Hyp […], Thr-Lys-Hyp-Arg-Hyp (SEQ ID NO: 13), Thr-Lys-Hyp-Arg-Hyp-Phe and Thr-Lys-Hyp-Arg-Hyp-Gly-Hyp (SEQ ID NO: 14).
The peptides described in RU2507212 were also obtained, in particular Thr-Lys-Pro, Thr-Lys-Pro-Arg-Pro (SEQ ID NO: 6), Thr-Lys-Pro-Arg-Pro-Phe (SEQ ID NO: 7) and Thr-Lys-Pro-Arg-Pro-Gly-Pro (SEQ ID NO: 1).
From the compounds obtained, a liquid pharmaceutical form (a solution) was prepared, including the peptide and the preservative benzalkonium chloride with the following ratio of components: 0.2 and 0.01 mass %, respectively, water the rest. Samples were placed in storage at two temperature regimes, namely, +4° C. and +25° C. Investigation of the stability of the peptides was carried out after 1, 3, 6, 12, and 24 months of storage. In the investigation of the samples for stability, the quantity of single impurities and the total quantity of impurities were evaluated, testifying to the degradation of the peptides. The pharmaceutical requirements of the company for impurities are: any single impurity, not more than 1.5%; total content of impurities, not more than 3.0%. If the content of impurities exceeded the above indicated values, the pharmaceutical form was deemed to have failed the test for stability.

[2] = test system: female rats; experiment: Efficacy in vivo on preclinical model (Lordoz test): proceptive behavior of ovarioectomized, hormonally stimulated females; conditions: 100 mcg/rat, progesterone 0.5 mg/rat
Method: Investigation of the Efficacy of the Peptides of the Invention as a Means of Stimulating the Genital and Sexual Functions
In order to confirm the efficacy as a means of stimulating the genital and sexual functions, peptides according to the invention were synthesized, in particular the tripeptide Thr-Lys-Hyp, the pentapeptide Thr-Lys-Hyp-Arg-Hyp (SEQ ID NO: 12), and the hexapeptide Thr-Lys-Hyp-Arg-Hyp-Phe (SEQ ID NO: 13), and tests were performed as to the efficacy in vivo on the relevant preclinical model (Lordoz test). Furthermore, the efficacy of the group of peptides Thr-Lys-Pro, Thr-Lys-Pro-Arg-Pro (SEQ ID NO: 6), and Thr-Lys-Pro-Arg-Pro-Phe (SEQ ID NO: 7) was also investigated.
The efficacy of the aforementioned groups of peptides was investigated in a dose of 100 mcg/rat with respect to the sexual behavior of female rats. The sexual behavior was registered over the course of 0-16 days in ovarioectomized, hormonally stimulated females in the case of direct contact with sexually active males and in the case when no such contact was possible. […] The results testify to an increase in sexual motivation under the action of the peptides Thr-Lys-Hyp, Thr-Lys-Hyp-Arg-Hyp (SEQ ID NO: 12), and Thr-Lys-Hyp-Arg-Hyp-Phe (SEQ ID NO: 13).

[3] = stored for 1 month at +4° C., solution 0.2 mass % peptide, 0.01 mass % benzalkonium chloride
[4] = stored for 1 month at +25° C., solution 0.2 mass % peptide, 0.01 mass % benzalkonium chloride
[5] = stored for 12 months at +25° C.
[6] = stored for 24 months at +25° C.

Substance | Single impurities [1, 3] [%] | Total impurities [1, 3] [%] | Single impurities [1, 4] [%] | Total impurities [1, 4] [%] | Single impurities ([1]; stored for 3 months at +4° C.) [%] | Total impurities ([1]; stored for 3 months at +4° C.) [%] | Single impurities ([1]; stored for 3 months at +25° C.) [%] | Total impurities ([1]; stored for 3 months at +25° C.) [%] | Single impurities ([1]; stored for 6 months at +4° C.) [%] | Total impurities ([1]; stored for 6 months at +4° C.) [%] | Single impurities ([1]; stored for 6 months at +25° C.) [%] | Total impurities ([1]; stored for 6 months at +25° C.) [%] | Single impurities ([1]; stored for 12 months at +4° C.) [%] | Total impurities ([1]; stored for 12 months at +4° C.) [%] | Single impurities ([1]; stored for 24 months at +4° C.) [%] | Total impurities ([1]; stored for 24 months at +4° C.) | Number of proceptive behavior acts ([2]; day 0 of giving the drug) | Number of proceptive behavior acts ([2]; day 5 of giving the drug) | Number of proceptive behavior acts ([2]; day 11 of giving the drug) | Number of proceptive behavior acts ([2]; day 16 of giving the drug) | further results
Thr-Lys-Pro [reference compound] | 0.051 | 0.13 | 0.06 | 0.1 | 0.053 | 0.135 | 0.13 | 0.25 | 0.3 | 0.9 | 1.7 | 3.1 | 0.9 | 1.7 | 1.2 | 2.2% | 14 ± 4 | 15 ± 4 | 20 ± 4 | 28 ± 4 | 
Thr-Lys-[Hyp] | 0.034 | 0.09 | 0.052 | 0.11 | 0.035 | 0.11 | 0.052 | 0.9 | 0.036 | 0.2 | 0.2 | 1 | 0.09 | 0.3 | 0.1 | 0.9% | 12 ± 4 | 25 ± 4 | 24 ± 4 | 26 ± 4 | Single impurities [1, 5]: 0.3%; Total impurities [1, 5]: 1.2%; Single impurities [1, 6]: 0.8%; Total impurities [1, 6]: 1.8%
Thr-Lys-Hyp-Arg-Hyp-Phe (TK[Hyp]R[Hyp]F) [hexapeptide of the invention containing hydroxyproline] | 0.067 | 0.15 | 0.032 | 0.09 | 0.068 | 0.15 | 0.033 | 0.09 | 0.08 | 0.2 | 0.09 | 0.6 | 0.1 | 0.3 | 0.9 | 1.9% | 14 ± 4 | 24 ± 4 | 23 ± 4 | 24 ± 4 | Single impurities [1, 5]: 0.4%; Total impurities [1, 5]: 0.8%; Single impurities [1, 6]: 1.3%; Total impurities [1, 6]: 2.7%
Thr-Lys-Pro-Arg-Pro-Gly-Pro (TKPRPGP; not fully specified; printed as Thr-Lys-Pro-Arg-Pro-Gly-Pro) [heptopeptide “Selank”, a synthetic analogue of the endogenous peptide tuftsin, reference compound] | 0.05 | 0.17 | 0.065 | 0.13 | 0.07 | 0.2 | 0.9 | 1.2 | 0.8 | 1.4 | 1.7 | 3.1 | 1 | 1.7 | 2 | 3.7% |  |  |  |  | 
Thr-Lys-Pro-Arg-Pro (TKPRP; not fully specified; printed as Thr-Lys-Pro-Arg-Pro) [pentapeptide described in RU2507212, comparison peptide, reference compound] | 0.042 | 0.09 | 0.067 | 0.54 | 0.042 | 0.93 | 0.19 | 0.9 | 0.09 | 1 | 1.4 | 3.0 | 0.8 | 1.5 | 1.1 | 1.9% | 12 ± 4 | 15 ± 4 | 24 ± 4 | 36 ± 6 | Single impurities [1, 5]: 4%; Total impurities [1, 5]: 6%
Thr-Lys-Hyp-Arg-Hyp-Gly-Hyp (TK[Hyp]R[Hyp]G[Hyp]) [peptide according to the invention containing hydroxyproline] | 0.049 | 0.12 | 0.069 | 0.14 | 0.05 | 0.12 | 0.07 | 0.5 | 0.06 | 0.14 | 0.09 | 0.9 | 0.09 | 0.3 | 0.1 | 1.1% |  |  |  |  | Single impurities [1, 5]: 0.3%; Total impurities [1, 5]: 1.1%; Single impurities [1, 6]: 1.2%; Total impurities [1, 6]: 2.6%
Thr-Lys-Hyp-Arg-Hyp (TK[Hyp]R[Hyp]) [pentapeptide of the invention containing hydroxyproline] | 0.03 | 0.09 | 0.046 | 0.14 | 0.03 | 0.09 | 0.047 | 0.15 | 0.04 | 0.1 | 0.1 | 0.7 | 0.07 | 0.2 | 0.1 | 0.7% | 13 ± 4 | 38 ± 4 | 36 ± 4 | 36 ± 6 | Single impurities [1, 5]: 0.2%; Total impurities [1, 5]: 0.9%; Single impurities [1, 6]: 0.9%; Total impurities [1, 6]: 1.2%
Thr-Lys-Pro-Arg-Pro-Phe (TKPRPF; not fully specified; printed as Thr-Lys-Pro-Arg-Pro-Phe) [hexapeptide described in RU2507212, comparison peptide, reference compound] | 0.054 | 0.17 | 0.11 | 0.19 | 0.09 | 0.18 | 0.9 | 1.1 | 0.5 | 1.1 | 1.9 | 3.5 | 0.9 | 1.3 | 1.6 | 2,9% | 14 ± 4 | 16 ± 4 | 19 ± 4 | 26 ± 4 | 
